According to the Human Domainome abundance scans (Beltran et al. 2025):
± gives the uncertainty stated by the source.

B1: Far upstream element-binding protein 1, residues 98 to 169; numbered along this chain, Q96AE4 (parent)
chain: RSVMTEEYKVPDGMVGFIIGRGGEQISRIQQESGCKIQIAPDSGGLPERSCMLTGTPESVQSAKRLLDQIVE

Variants of: B1
Experiment: abundance fitness (aPCA) (normalised: wild type 0, dead -1); higher = more abundant; growth selection in yeast, the domain comes from the species named
Settings: Homo sapiens

RSVMTEEYKVPDGMVGFIIGRGGEQISRIQQESGCKIQIAPDSGGLPERSCMLTGTPESVQSAKRLLWQIVE [D68W] and RSVMTEEYKVPDGMVGFIIGRGGEQISRIQQESGCKIQIAPDSGGLPERSCMLTGTPESVQSAKRLLIQIVE [D68I] are within error of each other in abundance fitness: -0.042 ± 0.032 for the first, -0.093 ± 0.04 for the second.

First: RSVMTEEYKVPDGMVGFIIGRGGEQISRIQQESGCKIQIAPDSGGLPERSCMLTGTPESVQSAKRLLKQIVE [D68K]
Second: RSVMTEEYKVPDGMVGFIIGRGGEQISRIQQESGCKIQIAPDSGGLPERSCMLTGTPESVQSAKRLLVQIVE [D68V]
The abundance fitness of the first is higher: -0.001 ± 0.032 for the first, -0.078 ± 0.026 for the second.

RSVMTEEYKVPDGMVGFIIGRGGEQISRIQQESGCKIQIAPDSGGLPERSCMLTGTPESVQSAKRLLGQIVE [D68G] and RSVMTEEYKVPDGMVGFIIGRGGEQISRIQQESGCKIQIAPDSGGLPERSCMLTGTPESVQSAKRLLHQIVE [D68H] are within error of each other in abundance fitness: 0.014 ± 0.023 for the first, -0.045 ± 0.043 for the second.

RSVMTEEYKVPDGMVGFIIGRGGEQISRIQQESGCKIQIAPDSGGLPERSCMLTGTPESVQSAKRLLLQIVE [D68L] and RSVMTEEYKVPDGMVGFIIGRGGEQISRIQQESGCKIQIAPDSGGLPERSCMLTGTPESVQSAKRLLMQIVE [D68M] are within error of each other in abundance fitness: -0.064 ± 0.026 for the first, -0.011 ± 0.032 for the second.

RSVMTEEYKVPDGMVGFIIGRGGEQISRIQQESGCKIQIAPDSGGLPERSCMLTGTPESVQSAKRLLFQIVE [D68F] and RSVMTEEYKVPDGMVGFIIGRGGEQISRIQQESGCKIQIAPDSGGLPERSCMLTGTPESVQSAKRLLEQIVE [D68E] are within error of each other in abundance fitness: -0.052 ± 0.041 for the first, -0.023 ± 0.03 for the second.

RSVMTEEYKVPDGMVGFIIGRGGEQISRIQQESGCKIQIAPDSGGLPERSCMLTGTPESVQSAKRLLTQIVE [D68T] and RSVMTEEYKVPDGMVGFIIGRGGEQISRIQQESGCKIQIAPDSGGLPERSCMLTGTPESVQSAKRLLRQIVE [D68R] are within error of each other in abundance fitness: -0.034 ± 0.03 for the first, -0.019 ± 0.023 for the second.

RSVMTEEYKVPDGMVGFIIGRGGEQISRIQQESGCKIQIAPDSGGLPERSCMLTGTPESVQSAKRLLSQIVE [D68S] and RSVMTEEYKVPDGMVGFIIGRGGEQISRIQQESGCKIQIAPDSGGLPERSCMLTGTPESVQSAKRLLCQIVE [D68C] are within error of each other in abundance fitness: -0.012 ± 0.026 for the first, -0.065 ± 0.035 for the second.

RSVMTEEYKVPDGMVGFIIGRGGEQISRIQQESGCKIQIAPDSGGLPERSCMLTGTPESVQSAKRLLNQIVE [D68N] and RSVMTEEYKVPDGMVGFIIGRGGEQISRIQQESGCKIQIAPDSGGLPERSCMLTGTPESVQSAKRLLQQIVE [D68Q] are within error of each other in abundance fitness: -0.025 ± 0.033 for the first, -0.058 ± 0.034 for the second.

First: RSVMTEEYKVPDGMVGFIIGRGGEQISRIQQESGCKIQIAPDSGGLPERSCMLTGTPESVQSAKRLLPQIVE [D68P]
Second: RSVMTEEYKVPDGMVGFIIGRGGEQISRIQQESGCKIQIAPDSGGLPERSCMLTGTPESVQSAKRLLAQIVE [D68A]
The abundance fitness of the first is lower: -0.544 ± 0.037 for the first, 0.004 ± 0.026 for the second.

RSVMTEEYKVPDGMVGFIIGRGGEQISRIQQESGCKIQIAPDSGGLPERSCMLTGTPESVQSAKRLLDQKVE [I70K] and RSVMTEEYKVPDGMVGFIIGRGGEQISRIQQESGCKIQIAPDSGGLPERSCMLTGTPESVQSAKRLLDQQVE [I70Q] are within error of each other in abundance fitness: -0.03 ± 0.031 for the first, -0.019 ± 0.031 for the second.

First: RSVMTEEYKVPDGMVGFIIGRGGEQISRIQQESGCKIQIAPDSGGLPERSCMLTGTPESVQSAKRLLDQWVE [I70W]
Second: RSVMTEEYKVPDGMVGFIIGRGGEQISRIQQESGCKIQIAPDSGGLPERSCMLTGTPESVQSAKRLLDQGVE [I70G]
The abundance fitness of the first is higher: -0.02 ± 0.029 for the first, -0.11 ± 0.025 for the second.

Going from RSVMTEEYKVPDGMVGFIIGRGGEQISRIQQESGCKIQIAPDSGGLPERSCMLTGTPESVQSAKRLLDQNVE [I70N] to RSVMTEEYKVPDGMVGFIIGRGGEQISRIQQESGCKIQIAPDSGGLPERSCMLTGTPESVQSAKRLLDQAVE [I70A], the abundance fitness rises from -0.142 ± 0.04 to 0.062 ± 0.028.

RSVMTEEYKVPDGMVGFIIGRGGEQISRIQQESGCKIQIAPDSGGLPERSCMLTGTPESVQSAKRLLDQEVE [I70E] and RSVMTEEYKVPDGMVGFIIGRGGEQISRIQQESGCKIQIAPDSGGLPERSCMLTGTPESVQSAKRLLDQHVE [I70H] are within error of each other in abundance fitness: 0.001 ± 0.03 for the first, -0.062 ± 0.042 for the second.

First: RSVMTEEYKVPDGMVGFIIGRGGEQISRIQQESGCKIQIAPDSGGLPERSCMLTGTPESVQSAKRLLDQPVE [I70P]
Second: RSVMTEEYKVPDGMVGFIIGRGGEQISRIQQESGCKIQIAPDSGGLPERSCMLTGTPESVQSAKRLLDQSVE [I70S]
The abundance fitness of the first is lower: -0.259 ± 0.032 for the first, -0.046 ± 0.028 for the second.

RSVMTEEYKVPDGMVGFIIGRGGEQISRIQQESGCKIQIAPDSGGLPERSCMLTGTPESVQSAKRLLDQVVE [I70V] and RSVMTEEYKVPDGMVGFIIGRGGEQISRIQQESGCKIQIAPDSGGLPERSCMLTGTPESVQSAKRLLDQFVE [I70F] are within error of each other in abundance fitness: 0.001 ± 0.027 for the first, 0.024 ± 0.045 for the second.

RSVMTEEYKVPDGMVGFIIGRGGEQISRIQQESGCKIQIAPDSGGLPERSCMLTGTPESVQSAKRLLDQRVE [I70R] and RSVMTEEYKVPDGMVGFIIGRGGEQISRIQQESGCKIQIAPDSGGLPERSCMLTGTPESVQSAKRLLDQCVE [I70C] are within error of each other in abundance fitness: -0.013 ± 0.024 for the first, 0.004 ± 0.038 for the second.

RSVMTEEYKVPDGMVGFIIGRGGEQISRIQQESGCKIQIAPDSGGLPERSCMLTGTPESVQSAKRWLDQIVE [L66W] and RSVMTEEYKVPDGMVGFIIGRGGEQISRIQQESGCKIQIAPDSGGLPERSCMLTGTPESVQSAKRYLDQIVE [L66Y] are within error of each other in abundance fitness: -0.123 ± 0.027 for the first, -0.079 ± 0.04 for the second.

RSVMTEEYKVPDGMVGFIIGRGGEQISRIQQESGCKIQIAPDSGGLPERSCMLTGTPESVQSAKRVLDQIVE [L66V] and RSVMTEEYKVPDGMVGFIIGRGGEQISRIQQESGCKIQIAPDSGGLPERSCMLTGTPESVQSAKRNLDQIVE [L66N] are within error of each other in abundance fitness: -0.11 ± 0.026 for the first, -0.108 ± 0.039 for the second.

RSVMTEEYKVPDGMVGFIIGRGGEQISRIQQESGCKIQIAPDSGGLPERSCMLTGTPESVQSAKRRLDQIVE [L66R] showed an abundance fitness of -0.053 ± 0.024.
